Laboratory results from PMC11480844.

B1: H2-Kb / H6 (parent)
chain 1: AQKVTQTQTSISVMEKTTVTMDCVYETQDSSYFLFWYKQTASGEIVFLIRQDSYKKENATVGHYSLNFQKPKSSIGLIITATQIEDSAVYFCAMRDYNQGKLIFGQGTKLSIKP
chain 2: EAAVTQSPRSKVAVTGGKVTLSCHQTNNHDYMYWYRQDTGHGLRLIHYSYVADSTEKGDIPDGYKASRPSQENFSLILELASLSQTAVYFCASSGTAANSDYTFGSGTRLLVI
chain 3: not shown
chain 4: IQKTPQIQVYSRHPPENGKPNILNCYVTQFHPPHIEIQMLKNGKKIPKVEMSDMSFSKDWSFYILAHTEFTPTETDTYACRVKHDSMAEPKTVYWDRDM
chain 5: SIINFEKL
B2: H2-Kb / G2 (parent)
chain 1: GEQVEQRPPHLSVREGDSAVIICTYTDPNSYYFFWYKQEPGAGLQLLMKVFSSTEINEGQGFTVLLNKKDKQLSLNLTAAHPGDSAVYFCAVRTNQGGRALIFGTGTTVSVSP
chain 2: EAAVTQSPRSKVAVTGGKVTLSCHQTNNHDYMYWYRQDTGHGLRLIHYSYVADSTEKGDIPDGYKASRPSQENFSLILELASLSQTAVYFCASSGTDTEVFFGKGTRLTVV
chain 3: not shown
chain 4: B1 chain 4
chain 5: SIINFEKL

Variants of: B1
Test: % of reporter cells activated (NFAT-GFP), raw
Details: with H6; scale: % of reporter cells activated
Also: test concentration or dose not given here.

Ratio to parent of substitutions, site by site:
chain 5 I3: E 1.19 | F 0.342 | G 0.962 | H 0.61 | K 0.236 | L 1.02 | M 1.62 | N 1.09 | P 1.18 | Q 1.11 | R 0.295 | S 0.872 | T 0.955 | V 1.57 | W 0.281 | Y 0.236
chain 5 K7: A 0.097 | C 0.125 | D 0.0822 | E 0.122 | F 0.111 | G 0.072 | H 0.809 | I 0.231 | L 0.112 | M 0.188 | N 0.0979 | P 0.11 | Q 0.102 | R 1.36 | S 0.0877 | T 0.111 | V 0.261 | W 0.129 | Y 0.162
chain 5 L8: A 0.199 | C 0.28 | D 0.209 | E 0.214 | F 0.32 | G 0.36 | H 0.825 | I 0.888 | K 0.13 | M 0.538 | N 0.433 | P 0.26 | Q 0.131 | R 0.406 | S 0.129 | T 0.521 | V 0.537 | W 0.248 | Y 0.729
chain 5 N4: A 0.202 | C 0.206 | D 0.132 | E 0.2 | F 0.335 | G 0.445 | H 0.91 | I 0.116 | K 0.126 | L 0.146 | M 0.111 | P 0.519 | Q 0.117 | R 0.102 | S 0.295 | T 0.143 | V 0.0988 | W 0.672 | Y 0.358
chain 5 S1: A 0.556 | C 0.188 | D 1.53 | E 0.709 | F 0.276 | G 0.517 | H 0.446 | I 0.338 | K 0.384 | L 0.355 | M 0.536 | N 0.416 | P 0.141 | Q 0.602 | R 0.333 | T 0.524 | V 0.294 | W 0.292 | Y 0.424

Variants of: B2
Test: % of reporter cells activated (NFAT-GFP), raw
Details: with G2; scale: % of reporter cells activated

Ratio to parent of substitutions, site by site:
chain 5 E6: A 1.9 | C 1.18 | D 1.28 | F 1.36 | G 1.29 | H 1.36 | I 1.02 | K 1.3 | L 1.08 | M 1.15 | N 1.39 | P 1.53 | Q 1.41 | R 1.34 | S 1.01 | T 1.73 | V 1.7 | W 1.31 | Y 1.71
chain 5 F5: A 1.38 | C 1.4 | D 1.77 | E 1.34 | G 1.23 | H 1.51 | I 1.06 | K 1.36 | L 1.46 | M 1.31 | N 0.984 | P 1.42 | Q 1.24 | R 0.864 | S 0.88 | T 1.06 | V 1.42 | W 1.15 | Y 1.62
chain 5 I2: A 1.66 | C 1.06 | D 1.58 | E 1.41 | F 1.32 | G 0.928 | H 1.31 | K 1.16 | L 1.25 | M 0.88 | N 1.11 | P 1.65 | Q 1.13 | R 1.01 | S 1.32 | T 1.56 | V 1.18 | W 1.18 | Y 1.54
chain 5 I3: A 1.42 | C 1.38 | D 1.26 | E 1.55 | F 1.19 | G 1.39 | H 1.18 | K 1.5 | L 1.34 | M 1.88 | N 1.53 | P 1.44 | Q 1.03 | R 0.8 | S 0.936 | T 0.992 | V 0.968 | W 1.3
